Results taken from patent US20240409645A1 (DUALYX, published 2024).
Changes are numbered by the printed parent chain.

T1: human IL-2Rα (human, UniProt P01589 22-240, limits assumed)
T1 construct: recombinant protein; also called hu IL-2R; human IL-2Ra
T1 sequence: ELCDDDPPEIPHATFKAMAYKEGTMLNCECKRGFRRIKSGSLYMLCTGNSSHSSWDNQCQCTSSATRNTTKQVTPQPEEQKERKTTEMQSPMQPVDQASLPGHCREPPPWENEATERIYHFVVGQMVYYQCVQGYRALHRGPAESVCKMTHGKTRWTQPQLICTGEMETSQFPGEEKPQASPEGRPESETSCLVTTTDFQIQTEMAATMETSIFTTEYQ

B1: FJ1427_P035MP01E12 (VHH)
VHH: QVQLVESGGGLVQAGGSLRLSCAASGITFNDHTMAWFRQAPGKEREFVAARDWSDIITRYASSVKGRFTISRDNAGNTGFLQMNSLRPEDTAVYYCAAREGGVVAGVRSGAPYDYWGQGTQVTVSS
notes: periplasmic extract; also called clone nr; 93
B2: FJ1427_P035MP01F12 (VHH)
VHH: B1 VHH with Q1E, R19G, S126P
notes: periplasmic extract; also called clone nr; 94
B3: FJ1427_P035MP05H02 (VHH)
VHH: B1 VHH with Q1E, S62G
notes: periplasmic extract; also called clone nr; 400
B4: FJ1427_P035MP01G11 (VHH)
VHH: B1 VHH with Q118R
notes: periplasmic extract; also called clone nr; 87
B5: FJ1427_P035MP05H01 (VHH)
VHH: B1 VHH with Q1E
notes: periplasmic extract; also called clone nr
B6: FJ1427_P035MP05B03 (VHH)
VHH: B1 VHH with V5Q, A14P
notes: as for B5
B7: FJ1427_P035MP01F06 (VHH)
VHH: QLQLVESGGGLVQAGGSLRLSCAASGGAFSRYAVGWFRMAPGKGREFVSAIDLSGTNTHVLDSVKGRFTISRDNDKNTAYLQMDKLQPEDTAVYWCAATSSSYSDYEANYNIWGQGTQVTVSS
notes: periplasmic extract; also called clone nr; 46
B8: FJ1427_P035MP01H02 (VHH)
VHH: B7 VHH with G16D, G27R, D52N, L53S, T56A, H59Y, K85S, D105T, I112V
notes: periplasmic extract; also called clone nr; 16
B9: FJ1427_P035MP01G10 (VHH)
VHH: B7 VHH with Q1E, L2V
notes: periplasmic extract; also called clone nr; 79
B10: FJ1427_P035MP05E11 (VHH)
VHH: EVQLVESGGGSVQAGGSLRLSCAASGRTLYSSYGMAWFRQAPGKERDFVGSISRYGTYTSYADSVKDRFTISRDNAKSTVYLQMNNTKPEDTAVYYCAAYTYSGSFYSTVKTHRDEYQYWGQGTQVTVSS
notes: as for B5
B11: FJ1427_P035MP01F08 (VHH)
VHH: EVQLVESGGGWVQPGDSLRLSCAASGRSFRNYVMGWFRQVPGKEREFLSVITSLGGTLDADSVADRFTISRDNSKNTVYLQMDSLKPEDTAVYYCAADRGPARYISASDVDYWGQGTQVTVSS
notes: periplasmic extract; also called clone nr; 62
B12: FJ1427_P035MP01D04 (VHH)
VHH: B11 VHH with E1Q, S53W
notes: periplasmic extract; also called clone nr; 28
B13: FJ1427_P035MP01B01 (VHH)
VHH: B11 VHH with P14A, S28T, L58V, D59Y, D65N, S74P, N76D, V121A
notes: as for B5
B14: 10-MP05F03 (VHH)
VHH: QVQLVESGGGLVQAGGSLRLSCAASGIPFDNYAMGWFRQAPGKEREFVAARDLEGIITRYGDSVKGRFTISRGNAKNTVFLQMNSLKPEDTAVYYCAARDGGVVAGSRSSAQYNYWGQGTQVTVSS
notes: periplasmic extract; also called FJ1427_P035MP05F03
B15: FJ1427_P035MP01E10 (VHH)
VHH: QVQLVESGGGLVQAGDSLRLSCAASGRSFRNYILAWYRQAPGKEREFLAAISWLDGTLYADSVEDRFTISRDNPKNTVHLQMDSLKPEDTAVYYCAADRGPVRPVLAPDVDYWGQGTQVTVSS
notes: periplasmic extract; also called clone nr; 77
B16: FJ1427_P035MP01B12 (VHH)
VHH: B15 VHH with V5Q, L58F, D61N, D65G, S84G, S122A
notes: periplasmic extract; also called clone nr; 90
B17: FJ1427_P035MP01D11 (VHH)
VHH: B15 VHH with V2L, L34M
notes: periplasmic extract; also called clone nr; 84
B18: FJ1427_P035MP01F11 (VHH)
VHH: B15 VHH with V5Q
notes: periplasmic extract; also called clone nr; 86
B19: FJ1427_P035MP01A01 (VHH)
VHH: B15 VHH with Q1E, S84N, T120S
notes: as for B5
B20: FJ1427_P035MP01G07 (VHH)
VHH: B15 VHH with A14T, D65G
notes: periplasmic extract; also called clone nr; 55
B21: FJ1427_P035MP01E04 (VHH)
VHH: B15 VHH with A24V, L58F, D61N, D65G, S84G, S122A
notes: periplasmic extract; also called clone nr; 29
B22: FJ1427_P035MP01E07 (VHH)
VHH: B15 VHH with V5Q, D55E
notes: periplasmic extract; also called clone nr; 53
B23: FJ1427_P035MP01E02 (VHH)
VHH: B15 VHH with S84N
notes: periplasmic extract; also called clone nr; 13
B24: FJ1427_P035MP05D06 (VHH)
VHH: QVQLVESGGGLVQAGDSLRLSCAASGFNFGWHAMGWFRQAPGKEREFVATITWTGRDTYYADSVRGRFTISKDNAKDTLFLQMNSLRPDDTGVYYCAKARERATWAYSEDDCDYWGQGTQVTVSS
notes: as for B5
B25: FJ1427_P035MP05F06 (VHH)
VHH: B24 VHH with Q1E
notes: periplasmic extract; also called clone nr; 430
B26: FJ1427_P035MP05H05 (VHH)
VHH: B24 VHH with D77N, N84S
notes: as for B5
B27: 13-MP05E12 (VHH)
VHH: B24 VHH with V5Q
notes: periplasmic extract; The row prints V ID 13-MP05E12 beside Clone ID ...MP05H07; clone nr; also called FJ1427_P035MP05H07
B28: FJ1427_P035MP01F02 (VHH)
VHH: QVQLQESGGGLVQAGGSLRLSCAASGRTFRTHNMGWFRRAPGKEREFVAAISWNIDNKLYADSVKGRSTISRDNGGNMVFLQMNSLKPEDTAVYYCAADKIPLSSDVAATATEYDDWGQGTQVTVSS
notes: periplasmic extract; also called clone nr; 14
B29: FJ1427_P035MP01F07 (VHH)
VHH: QVQLVESGGGLVQAGGSLRLSCAATGLTFRQHNMGWFRRAPGKEREFVAAISWNVGSTYFADSVKGRFTISRDNGKNMVYLQMNSLKPEDTAVYYCAADNIPLASDMRATATAYGYWGQGTQVTVSS
notes: periplasmic extract; also called clone nr; 54
B30: 07-MP01G08 (VHH)
VHH: EVQLVESGGGLVQAGGSLRLSCAASGRAFSMYNMGWFRQAPGKEREFVAATGWSGANTPYADSVKGRFTISRDNTQNTVYLQMNSLKPEDTATYYCAADSIRLRSDVTRIPLEYDYWGQGTQVTVSS
notes: periplasmic extract; also called FJ1427_P035MP01G08

How the values were obtained:
human IL-2Rα [1] = target: T1, human IL-2Rα; assay: ELISA, P.E. on coated antigen
Experimental: In a binding ELISA, human or mouse IL-2Rα, IL-2Rβ and IL-2Rγ proteins were coated directly on maxisorp microtiter plates overnight at 4° C. Free binding sites were blocked using 4% Marvel in PBS for 1 hour. Next, 1:5 dilution of P.E. in 1% Marvel/PBS were added to wells and incubated for 1 hour. […] Binding specificity was determined based on O.D. at 450 nm values compared to negative controls.

human IL-2Rα [2] = target: T1, human IL-2Rα; assay: SPR, P.E. on immobilised antigen
Experimental: SPR was performed to determine dissociation rates using Biacore 3000 instrument (GE Healthcare). Briefly, human and mouse IL-2R proteins were immobilized on carboxylmethyl dextran sensor chip (CM5) at approximately 2500 RUs using amine coupling in acetate buffer (GE Healthcare). The VHH-containing P.E. were loaded with a flow rate of 30 uL/min and the off-rates were measured over a 120s period.

Row | Binder | OD (PE binding ELISA) (human IL-2Rα [1]) [OD450 nm] | koff (human IL-2Rα [2]) [s⁻¹]
1 | B1 | 2.69 | 0.000141
2 | B2 | 2.67 | 0.00011
3 | B3 | 2.29 | 0.000141
4 | B4 | 2.73 | 0.000123
5 | B5 | 2.62 | 0.000141
6 | B6 | 2.42 | 0.000131
7 | B7 | 2.71 | 0.000526
8 | B8 | 2.35 | 0.00115
9 | B9 | 2.75 | 0.000443
10 | B10 | 2.35 | 0.001
11 | B11 | 2.71 | 0.00162
12 | B12 | 2.76 | 0.00295
13 | B13 | 2.78 | 0.00178
14 | B14 | 2.46 | 0.000639
15 | B15 | 2.78 | 0.00119
16 | B16 | 3.05 | 0.00144
17 | B17 | 3.21 | 0.0027
18 | B18 | 2.74 | 0.00118
19 | B19 | 2.85 | 0.00112
20 | B20 | 2.75 | 0.0015
21 | B21 | 2.61 | 0.00235
22 | B22 | 2.73 | 0.00159
23 | B23 | 2.86 | 0.00128
24 | B24 | 2.51 | 0.000677
25 | B25 | 2.51 | 0.00067
26 | B26 | 2.51 | 0.000591
27 | B27 | 2.34 | 0.000742
28 | B28 | 2.5 | 0.00391
29 | B29 | 2.76 | 0.00067
30 | B30 | 2.57 | 0.00184
